Results as given in patent publication US20140072613A1 (published 2014).

T1: PhKγ2(h) (human, UniProt P15735 1-406)
T1 sequence (looked up): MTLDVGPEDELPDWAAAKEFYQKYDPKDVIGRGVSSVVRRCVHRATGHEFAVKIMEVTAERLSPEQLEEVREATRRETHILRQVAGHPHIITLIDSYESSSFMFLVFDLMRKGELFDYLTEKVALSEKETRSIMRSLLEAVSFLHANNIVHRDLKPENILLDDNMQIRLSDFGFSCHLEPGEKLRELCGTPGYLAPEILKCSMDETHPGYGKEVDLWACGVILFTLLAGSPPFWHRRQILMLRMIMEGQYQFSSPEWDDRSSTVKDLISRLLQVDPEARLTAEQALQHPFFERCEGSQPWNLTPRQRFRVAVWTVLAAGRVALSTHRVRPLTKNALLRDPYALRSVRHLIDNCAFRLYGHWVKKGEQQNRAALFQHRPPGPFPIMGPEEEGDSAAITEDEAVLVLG

T2: CHK1(h) (human, UniProt O14757 1-476)
T2 sequence (looked up): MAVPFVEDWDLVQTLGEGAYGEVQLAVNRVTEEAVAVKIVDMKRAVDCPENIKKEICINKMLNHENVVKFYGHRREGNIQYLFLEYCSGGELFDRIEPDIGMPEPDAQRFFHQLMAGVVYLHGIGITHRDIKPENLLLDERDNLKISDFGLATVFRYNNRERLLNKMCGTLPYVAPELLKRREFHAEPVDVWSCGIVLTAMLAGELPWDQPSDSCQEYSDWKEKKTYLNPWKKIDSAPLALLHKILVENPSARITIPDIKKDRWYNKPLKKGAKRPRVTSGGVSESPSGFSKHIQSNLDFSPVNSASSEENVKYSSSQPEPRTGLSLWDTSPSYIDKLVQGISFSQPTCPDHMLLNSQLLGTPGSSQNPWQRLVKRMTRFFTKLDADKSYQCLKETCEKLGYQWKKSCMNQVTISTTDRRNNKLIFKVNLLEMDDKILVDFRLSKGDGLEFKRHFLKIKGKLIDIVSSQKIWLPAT

T3: Ret(V804M)(h) (human, UniProt P07949 658-1114, limits assumed)
T3 sequence (looked up): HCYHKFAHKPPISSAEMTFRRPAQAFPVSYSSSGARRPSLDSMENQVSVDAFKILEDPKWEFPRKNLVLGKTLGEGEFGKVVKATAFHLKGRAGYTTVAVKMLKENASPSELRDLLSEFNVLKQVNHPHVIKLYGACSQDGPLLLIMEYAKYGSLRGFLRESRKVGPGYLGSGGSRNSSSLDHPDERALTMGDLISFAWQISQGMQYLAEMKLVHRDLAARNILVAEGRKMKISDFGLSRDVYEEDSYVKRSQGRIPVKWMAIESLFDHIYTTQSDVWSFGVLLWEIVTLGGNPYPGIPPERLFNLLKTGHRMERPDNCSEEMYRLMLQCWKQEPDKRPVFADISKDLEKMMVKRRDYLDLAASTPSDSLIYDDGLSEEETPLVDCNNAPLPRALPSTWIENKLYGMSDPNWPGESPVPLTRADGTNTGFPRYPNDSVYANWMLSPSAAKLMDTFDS

T4: PKCε(h) (human, UniProt Q02156 1-737)
T4 sequence (looked up): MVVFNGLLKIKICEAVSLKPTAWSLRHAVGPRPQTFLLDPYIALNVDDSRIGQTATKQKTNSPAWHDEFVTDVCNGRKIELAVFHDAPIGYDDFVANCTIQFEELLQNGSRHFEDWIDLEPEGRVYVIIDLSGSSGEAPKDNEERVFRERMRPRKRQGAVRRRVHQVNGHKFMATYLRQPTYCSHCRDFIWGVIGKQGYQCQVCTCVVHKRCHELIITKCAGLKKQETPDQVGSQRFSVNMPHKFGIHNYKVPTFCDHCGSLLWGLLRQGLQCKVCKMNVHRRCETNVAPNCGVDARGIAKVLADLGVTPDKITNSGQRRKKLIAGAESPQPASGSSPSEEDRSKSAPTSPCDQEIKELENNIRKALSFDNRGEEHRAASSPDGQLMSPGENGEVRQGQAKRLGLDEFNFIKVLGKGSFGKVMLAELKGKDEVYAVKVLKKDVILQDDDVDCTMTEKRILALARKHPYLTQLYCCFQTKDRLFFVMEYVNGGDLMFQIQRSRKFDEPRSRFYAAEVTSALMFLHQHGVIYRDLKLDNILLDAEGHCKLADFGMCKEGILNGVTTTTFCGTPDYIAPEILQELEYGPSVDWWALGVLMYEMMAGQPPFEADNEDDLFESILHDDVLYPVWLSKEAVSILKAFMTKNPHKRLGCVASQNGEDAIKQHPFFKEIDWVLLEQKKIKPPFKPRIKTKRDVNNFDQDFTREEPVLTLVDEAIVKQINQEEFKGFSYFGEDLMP

T5: PKD2(h) (human, UniProt Q9BZL6 1-878)
T5 sequence (looked up): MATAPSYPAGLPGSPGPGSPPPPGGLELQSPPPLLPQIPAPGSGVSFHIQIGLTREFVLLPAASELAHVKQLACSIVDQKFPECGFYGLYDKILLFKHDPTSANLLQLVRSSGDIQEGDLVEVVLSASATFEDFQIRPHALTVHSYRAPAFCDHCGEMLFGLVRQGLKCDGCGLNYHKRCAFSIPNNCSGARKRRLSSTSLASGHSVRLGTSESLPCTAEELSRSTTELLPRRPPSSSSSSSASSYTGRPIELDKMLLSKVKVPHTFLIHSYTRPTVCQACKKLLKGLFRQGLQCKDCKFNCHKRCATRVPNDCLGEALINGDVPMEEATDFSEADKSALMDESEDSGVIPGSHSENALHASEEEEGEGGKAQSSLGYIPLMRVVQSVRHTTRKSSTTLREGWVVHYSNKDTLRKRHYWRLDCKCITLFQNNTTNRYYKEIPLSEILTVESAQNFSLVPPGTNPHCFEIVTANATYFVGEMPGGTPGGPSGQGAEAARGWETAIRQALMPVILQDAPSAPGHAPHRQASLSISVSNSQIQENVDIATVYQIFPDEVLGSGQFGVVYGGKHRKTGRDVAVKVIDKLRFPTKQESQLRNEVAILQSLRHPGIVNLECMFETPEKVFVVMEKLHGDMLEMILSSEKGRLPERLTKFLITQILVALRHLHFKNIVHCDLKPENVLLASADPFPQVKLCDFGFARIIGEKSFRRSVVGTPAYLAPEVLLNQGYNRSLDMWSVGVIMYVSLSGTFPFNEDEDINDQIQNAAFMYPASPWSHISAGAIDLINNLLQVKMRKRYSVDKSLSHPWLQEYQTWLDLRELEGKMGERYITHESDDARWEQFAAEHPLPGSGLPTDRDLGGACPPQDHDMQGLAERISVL


Legend:
Test in all cases: cell-based or functional assay
[1] = target: T1, PhKγ2(h)
[2] = target: T2, CHK1(h)
[3] = target: T3, Ret(V804M)(h)
[4] = target: T4, PKCε(h)
[5] = target: T5, PKD2(h)

Row | Binder | % activity, 100 µM [1] | % activity, 100 µM [2] | % activity, 100 µM [3] | % activity, 100 µM [4] | % activity, 100 µM [5]
1 | KAFAKLAARLYRKALARQLGVAA [MMI-0400] | 38% | 87% | 87% | 59% | 25%
2 | FAKLAARLYRKALARQLGVAA [MMI-0300] | 46% | 91% | 95% | 79% | 33%
